The target in assay [1] is αvβ5 integrin isolated from human placental extract (human, UniProt P06756 31-1048; P18084 24-799). Description: phage panning on coated integrin. As to the method: (§1) In the first panning, the integrins were coated at 5 µg per well, and the library pool was incubated for 4 hours at 25° C. in TBS buffer containing 1% bovine serum albumin and 1 mM MnCl_2 (α_5β_1, α_vβ_3) 1 mM MgCl_2 ($\alphaIIb\beta_3$) or 1 mM CaCl_2 (α_vβ_5).

The target of assay [2] is T1, α5β1 integrin isolated from human placental extract (human, UniProt P08648 42-1049; P05556 21-798).
T1 construct: coated on plastic wells or captured by anti-α5 antibody; also called fibronectin receptor
The assay is described as follows: phage panning on coated integrin. On the procedure: as §1

Ends that are not written are not given here.

T1 sequence (P08648 42-1049, chain 1 of 2): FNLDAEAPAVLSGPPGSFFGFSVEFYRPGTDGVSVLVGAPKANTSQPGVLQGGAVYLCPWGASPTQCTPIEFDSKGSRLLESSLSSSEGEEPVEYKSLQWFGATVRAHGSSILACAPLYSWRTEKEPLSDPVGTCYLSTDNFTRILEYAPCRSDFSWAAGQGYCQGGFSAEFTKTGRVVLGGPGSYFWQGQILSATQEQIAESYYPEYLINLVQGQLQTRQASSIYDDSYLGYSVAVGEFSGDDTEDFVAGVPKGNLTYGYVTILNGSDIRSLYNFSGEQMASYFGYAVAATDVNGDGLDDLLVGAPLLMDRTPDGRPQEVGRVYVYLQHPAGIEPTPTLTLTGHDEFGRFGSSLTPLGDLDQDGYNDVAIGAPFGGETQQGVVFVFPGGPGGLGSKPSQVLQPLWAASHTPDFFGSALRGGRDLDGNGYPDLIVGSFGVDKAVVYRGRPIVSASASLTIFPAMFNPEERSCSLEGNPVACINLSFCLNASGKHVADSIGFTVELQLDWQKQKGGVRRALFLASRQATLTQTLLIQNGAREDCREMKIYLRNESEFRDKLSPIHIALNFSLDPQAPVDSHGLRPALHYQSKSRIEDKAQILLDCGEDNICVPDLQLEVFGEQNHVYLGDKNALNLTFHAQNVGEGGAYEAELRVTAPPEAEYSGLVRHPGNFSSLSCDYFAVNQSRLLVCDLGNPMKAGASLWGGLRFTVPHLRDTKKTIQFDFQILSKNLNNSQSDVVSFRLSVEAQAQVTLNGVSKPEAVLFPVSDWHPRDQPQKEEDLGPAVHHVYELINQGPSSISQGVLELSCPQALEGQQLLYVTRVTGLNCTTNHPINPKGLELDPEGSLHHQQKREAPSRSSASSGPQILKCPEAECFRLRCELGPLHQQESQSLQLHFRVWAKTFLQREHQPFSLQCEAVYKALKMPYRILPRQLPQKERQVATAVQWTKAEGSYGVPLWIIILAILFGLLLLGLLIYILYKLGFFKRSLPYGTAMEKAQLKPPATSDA
T1 sequence (P05556 21-798, chain 2 of 2): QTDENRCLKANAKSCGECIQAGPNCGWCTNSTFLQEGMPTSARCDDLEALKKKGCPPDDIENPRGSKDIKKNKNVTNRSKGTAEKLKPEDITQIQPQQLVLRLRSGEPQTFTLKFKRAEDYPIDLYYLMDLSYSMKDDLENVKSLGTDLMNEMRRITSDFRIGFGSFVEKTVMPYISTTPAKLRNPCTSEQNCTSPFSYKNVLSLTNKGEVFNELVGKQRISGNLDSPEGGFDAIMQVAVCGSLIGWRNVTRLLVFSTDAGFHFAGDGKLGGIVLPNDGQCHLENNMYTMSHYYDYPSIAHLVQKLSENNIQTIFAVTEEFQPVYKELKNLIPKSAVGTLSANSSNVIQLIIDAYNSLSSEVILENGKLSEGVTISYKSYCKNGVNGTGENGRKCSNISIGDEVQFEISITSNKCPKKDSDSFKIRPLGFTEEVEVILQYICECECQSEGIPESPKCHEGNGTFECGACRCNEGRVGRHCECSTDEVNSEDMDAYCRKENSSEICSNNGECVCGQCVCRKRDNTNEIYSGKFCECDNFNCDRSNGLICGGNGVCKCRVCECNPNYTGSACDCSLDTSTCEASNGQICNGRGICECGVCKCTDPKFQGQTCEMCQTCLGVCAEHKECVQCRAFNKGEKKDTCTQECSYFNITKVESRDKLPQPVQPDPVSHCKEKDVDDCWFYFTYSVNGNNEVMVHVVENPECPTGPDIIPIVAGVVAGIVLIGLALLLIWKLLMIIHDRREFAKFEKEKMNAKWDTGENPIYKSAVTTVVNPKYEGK
Sequence of αvβ5 integrin isolated from human placental extract (P06756 31-1048, chain 1 of 2): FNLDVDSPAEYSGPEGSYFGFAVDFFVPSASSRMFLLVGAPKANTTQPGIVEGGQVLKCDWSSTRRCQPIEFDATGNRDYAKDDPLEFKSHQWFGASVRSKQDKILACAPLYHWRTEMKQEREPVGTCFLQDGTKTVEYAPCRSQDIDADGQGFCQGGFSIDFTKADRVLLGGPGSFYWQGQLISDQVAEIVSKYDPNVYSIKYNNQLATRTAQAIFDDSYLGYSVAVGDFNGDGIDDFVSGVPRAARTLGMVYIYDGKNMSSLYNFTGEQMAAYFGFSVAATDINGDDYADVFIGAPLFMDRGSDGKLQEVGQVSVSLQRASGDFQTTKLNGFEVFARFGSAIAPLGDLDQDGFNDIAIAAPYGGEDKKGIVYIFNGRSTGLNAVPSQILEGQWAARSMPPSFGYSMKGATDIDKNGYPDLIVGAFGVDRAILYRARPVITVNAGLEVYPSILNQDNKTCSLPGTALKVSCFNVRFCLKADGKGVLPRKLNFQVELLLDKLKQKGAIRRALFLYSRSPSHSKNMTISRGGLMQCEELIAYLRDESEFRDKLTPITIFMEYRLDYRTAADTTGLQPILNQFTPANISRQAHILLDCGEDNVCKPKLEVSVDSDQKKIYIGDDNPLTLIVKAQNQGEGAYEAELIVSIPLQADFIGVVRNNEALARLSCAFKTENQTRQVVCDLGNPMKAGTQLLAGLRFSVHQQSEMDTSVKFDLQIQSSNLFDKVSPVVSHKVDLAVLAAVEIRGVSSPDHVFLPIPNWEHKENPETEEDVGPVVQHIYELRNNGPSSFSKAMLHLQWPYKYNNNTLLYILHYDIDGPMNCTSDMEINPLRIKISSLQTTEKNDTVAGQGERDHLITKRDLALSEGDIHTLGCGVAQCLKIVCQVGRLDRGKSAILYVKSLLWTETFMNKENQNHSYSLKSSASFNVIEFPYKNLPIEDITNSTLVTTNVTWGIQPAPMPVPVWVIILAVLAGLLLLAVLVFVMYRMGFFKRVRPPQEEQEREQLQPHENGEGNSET
Sequence of αvβ5 integrin isolated from human placental extract (P18084 24-799, chain 2 of 2): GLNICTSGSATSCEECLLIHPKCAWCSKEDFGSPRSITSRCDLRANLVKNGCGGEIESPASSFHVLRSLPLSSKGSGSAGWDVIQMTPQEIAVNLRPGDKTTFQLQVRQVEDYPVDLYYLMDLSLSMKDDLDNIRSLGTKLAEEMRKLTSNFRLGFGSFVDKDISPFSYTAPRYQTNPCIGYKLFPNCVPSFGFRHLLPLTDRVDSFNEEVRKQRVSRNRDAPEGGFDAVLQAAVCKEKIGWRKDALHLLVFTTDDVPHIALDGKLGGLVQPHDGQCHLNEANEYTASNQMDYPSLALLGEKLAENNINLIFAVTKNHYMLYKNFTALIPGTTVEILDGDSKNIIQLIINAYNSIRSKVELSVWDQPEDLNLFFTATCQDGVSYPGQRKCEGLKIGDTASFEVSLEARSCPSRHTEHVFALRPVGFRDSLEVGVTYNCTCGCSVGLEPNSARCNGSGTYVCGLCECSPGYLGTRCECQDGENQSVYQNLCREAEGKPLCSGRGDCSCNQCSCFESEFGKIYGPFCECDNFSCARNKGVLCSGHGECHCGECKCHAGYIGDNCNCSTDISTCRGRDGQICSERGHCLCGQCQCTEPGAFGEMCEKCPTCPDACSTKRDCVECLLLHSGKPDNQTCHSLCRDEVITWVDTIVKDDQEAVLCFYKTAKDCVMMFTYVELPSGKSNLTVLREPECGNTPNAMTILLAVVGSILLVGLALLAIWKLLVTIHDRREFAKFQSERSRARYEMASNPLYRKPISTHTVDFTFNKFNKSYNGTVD

As for CEAKFQLHWV (on fuse 5 phage, fused to pIII) [CEAKFQLHWV phage], in assay [1], the binding result was “binds”.
As for CRGDVPAVGC (on fuse 5 phage, fused to pIII) [CRGDVPAVGC phage], the binding result in assay [1] is “binds”.
On the same count and under the same terms, for CGPRERFLSC (on fuse 5 phage, fused to pIII) [CGPRERFLSC phage] the value was “binds”.
On the same count and under the same terms, for CAPRGDHFAC (on fuse 5 phage, fused to pIII) [CAPRGDHFAC phage] the value was “binds”.
As for CQGIDGTPAC (on fuse 5 phage, fused to pIII) [CQGIDGTPAC phage], the binding result in assay [2] is recorded as “binds”.
Regarding CPDKRGDTYC (on fuse 5 phage, fused to pIII) [CPDKRGDTYC phage], in assay [1], the binding result was “binds”.
In the case of CDWRGDNQFC (on fuse 5 phage, fused to pIII) [CDWRGDNQFC phage], in assay [2], the binding result is on record as “binds”.
CDSVLRVFC (on fuse 5 phage, fused to pIII) [CDSVLRVFC phage]: the binding result in assay [1] is “binds”.
For CRGDGLMCGL (on fuse 5 phage, fused to pIII) [CRGDGLMCGL phage], the binding result in assay [2] is reported as “binds”.
Still for that read-out and setting: with CRGDCLPTPR (on fuse 5 phage, fused to pIII) [CRGDCLPTPR phage] the entry was “binds”; with CPVRRGDGWC (on fuse 5 phage, fused to pIII) [CPVRRGDGWC phage], “binds”; with CYVNGRAWAC (on fuse 5 phage, fused to pIII) [CYVNGRAWAC phage], “binds”.
For the molecule CVSRGDTPKC (on fuse 5 phage, fused to pIII) [CVSRGDTPKC phage], the binding result in assay [1] was “binds”.
As to CGQRGDGFCL (on fuse 5 phage, fused to pIII) [CGQRGDGFCL phage], in assay [2], the binding result is recorded as “binds”.
For the molecule CIRQRIYPWC (on fuse 5 phage, fused to pIII) [CIRQRIYPWC phage], the binding result in assay [1] is reported as “binds”.
Turning to CRGDGAWC (on fuse 5 phage, fused to pIII) [CRGDGAWC phage], in assay [2], the binding result was “binds”.
Same read-out and setting: for CRGDGMWC (on fuse 5 phage, fused to pIII) [CRGDGMWC phage] the value was “binds”.
On the same count and under the same terms, for CRGDGLIC (on fuse 5 phage, fused to pIII) [CRGDGLIC phage] the value was “binds”; for CRGDGWIC (on fuse 5 phage, fused to pIII) [CRGDGWIC phage], “binds”; for CRGDNAWC (on fuse 5 phage, fused to pIII) [CRGDNAWC phage], “binds”.
The same measure, in the same setting: for CRGDGFLC (on fuse 5 phage, fused to pIII) [CRGDGFLC phage] the value was “binds”.
As to CRGDGLWC (on fuse 5 phage, fused to pIII) [CRGDGLWC phage], in assay [2], the binding result was “binds”.
Take CRGDAAWC (on fuse 5 phage, fused to pIII) [CRGDAAWC phage]: in assay [2], the binding result is “binds”.
Still for that read-out and setting: with CRGDGWWC (on fuse 5 phage, fused to pIII) [CRGDGWWC phage] the entry was “binds”; with CRGDGLMC (on fuse 5 phage, fused to pIII) [CRGDGLMC phage], “binds”.
Take CRGDRAWC (on fuse 5 phage, fused to pIII) [CRGDRAWC phage]: the binding result in assay [2] is on record as “binds”.
On the same count and under the same terms, with CRGDGWMC (on fuse 5 phage, fused to pIII) [CRGDGWMC phage] the entry was “binds”; with CRGDGLDC (on fuse 5 phage, fused to pIII) [CRGDGLDC phage], “binds”; with CRGDAAHC (on fuse 5 phage, fused to pIII) [CRGDAAHC phage], “binds”.
Still for that read-out and setting: with CRGDGMLC (on fuse 5 phage, fused to pIII) [CRGDGMLC phage] the entry was “binds”; with CRGDGAFC (on fuse 5 phage, fused to pIII) [CRGDGAFC phage], “binds”.
The same measure, in the same setting: with CRGDGWLC (on fuse 5 phage, fused to pIII) [CRGDGWLC phage] the entry was “binds”.
With CRGDGLLC (on fuse 5 phage, fused to pIII) [CRGDGLLC phage], the binding result in assay [2] is “binds”.
As for CRGDNVWC (on fuse 5 phage, fused to pIII) [CRGDNVWC phage], in assay [2], the binding result is reported as “binds”.
On to CQSRGDDFSC (on fuse 5 phage, fused to pIII) [CQSRGDDFSC phage], for which the binding result in assay [1] is “binds”.
Regarding CIEIQHGKAC (on fuse 5 phage, fused to pIII) [CIEIQHGKAC phage], the binding result in assay [1] was “binds”.
On to CVTRGDSFSC (on fuse 5 phage, fused to pIII) [CVTRGDSFSC phage], for which the binding result in assay [1] is recorded as “binds”.
In the case of CVGKELHKRV (on fuse 5 phage, fused to pIII) [CVGKELHKRV phage], the binding result in assay [1] was “binds”.
The same measure, in the same setting: for CGQRSSARAS (on fuse 5 phage, fused to pIII) [CGQRSSARAS phage] the value was “binds”.
For the molecule CRGDGQHC (on fuse 5 phage, fused to pIII) [CRGDGQHC phage], in assay [2], the binding result is “binds”.
Same read-out and setting: with CTNVNGRSAC (on fuse 5 phage, fused to pIII) [CTNVNGRSAC phage] the entry was “binds”.
Take CGSPLKSIKC (on fuse 5 phage, fused to pIII) [CGSPLKSIKC phage]: the binding result in assay [1] is “binds”.
Still for that read-out and setting: with CSQKRGDTWC (on fuse 5 phage, fused to pIII) [CSQKRGDTWC phage] the entry was “binds”; with CIRRGDTFGC (on fuse 5 phage, fused to pIII) [CIRRGDTFGC phage], “binds”.

B1: CLCRGDCIC phage (peptide)
peptide: CLCRGDCIC
modifications: not fully specified (bridges); also: two disulfide bonds, pairing not given here
notes: on fuse 5 phage, fused to pIII
With B1, the binding result in assay [1] is given as “binds”.
Still for that read-out and setting: for CRKQVMACTA (on fuse 5 phage, fused to pIII) [CRKQVMACTA phage] the value was “binds”.
Consider CLRGDGLALC (on fuse 5 phage, fused to pIII) [CLRGDGLALC phage], for which, in assay [2], the binding result was “binds”.
With CTRKRAVGAA (on fuse 5 phage, fused to pIII) [CTRKRAVGAA phage], in assay [1], the binding result is “binds”.
For CGRRGDVPRC (on fuse 5 phage, fused to pIII) [CGRRGDVPRC phage], the binding result in assay [1] is “binds”.
The same measure, in the same setting: for CTQRGDNFFC (on fuse 5 phage, fused to pIII) [CTQRGDNFFC phage] the value was “binds”.
On to CQVRGDQFAC (on fuse 5 phage, fused to pIII) [CQVRGDQFAC phage], for which the binding result in assay [1] is “binds”.

B2: CDCRGDCLC phage (peptide)
peptide: CDCRGDCLC
modifications: not fully specified (bridges); also: two disulfide bonds, pairing not given here
notes: as for B1
On to B2, for which the binding result in assay [1] is “binds”.
For the molecule CGQGMHRLAC (on fuse 5 phage, fused to pIII) [CGQGMHRLAC phage], the binding result in assay [2] was “binds”.
On to CRGDLPRAWC (on fuse 5 phage, fused to pIII) [CRGDLPRAWC phage], for which, in assay [1], the binding result is “binds”.
The same measure, in the same setting: for CPRRGDTFSC (on fuse 5 phage, fused to pIII) [CPRRGDTFSC phage] the value was “binds”.
For CRGDCCQSC (on fuse 5 phage, fused to pIII) [CRGDCCQSC phage], in assay [1], the binding result is “binds”.
In the case of CRGDGYCVFF (on fuse 5 phage, fused to pIII) [CRGDGYCVFF phage], the binding result in assay [2] is on record as “binds”.
With CAHRGDTPQC (on fuse 5 phage, fused to pIII) [CAHRGDTPQC phage], the binding result in assay [1] is given as “binds”.
Consider CQGMHGTPAC (on fuse 5 phage, fused to pIII) [CQGMHGTPAC phage], for which the binding result in assay [2] is “binds”.
On to CRGDTPGFLC (on fuse 5 phage, fused to pIII) [CRGDTPGFLC phage], for which the binding result in assay [1] is on record as “binds”.
The same measure, in the same setting: for CYRGDADFWC (on fuse 5 phage, fused to pIII) [CYRGDADFWC phage] the value was “binds”; for CQGRGDTFYC (on fuse 5 phage, fused to pIII) [CQGRGDTFYC phage], “binds”.
For the molecule CWRGDHVMPC (on fuse 5 phage, fused to pIII) [CWRGDHVMPC phage], the binding result in assay [2] is “binds”.
With CLHPNVRSC (on fuse 5 phage, fused to pIII) [CLHPNVRSC phage], the binding result in assay [1] is given as “binds”.

(Values after patent US7067619 (LA JOLLA CANCER RESEARCH FOUNDATION, dated 2006).)
